{"source": "the DeepSol protein solubility set"}
{"test": "soluble on expression in E. coli; label from the status in PepcDB or PDB records"}
{"sequence": "MRNFANYHVDVRRHTSGVVKTICEQCLPTRHNKRDRSLRVNIDTGHCHCYHCGADFYVPDDAEERAKAERQAARKRRAASAVPQHFHRPVFDASKTTLSEATERWLVETRCIPQSVIAGLRITEQEEFMSQSGTKERCVCFNYFEDGKLVNTKFRSGAKNFKMVQGAELIPYNIDSVLGQDTCIIHEGELDAASSLATGFKSVISVPAGANANLSWLDRFMESHFENLKDIIIAVDTDSAGLKLRDELVNRLGAERCRVAVYGPGCKDANEHLVKYGIDSLRIAIEQAEEIPLEGIFTAADLHEDLRALFDNGFGPGAETGWEEMDKICTYERRRLVIVTGIPGAGKSEWLDELVLRLCMRHQWKIAFFSPENNPIVYHLRKLIEKLTGRRFQNGCGMTEGLLLRSEEFLAENVCHIALKGSATPERVLAKARELVLRRGCRIFVFDPVNRFEHTPAPGQSETQYLSNFLNLFTEFATQYNCLVILVAHPRKMNRNPVTNHTPRPDMYDVNGSADFFNKADYGLVVERDKEVGVTRVYVEKVKFKHLGTGGVATFVYDPVSGRYLPCEESQDPSVPPEQRVRNTVNDSSCWLPEKELFE", "soluble on expression in E. coli": "not soluble"}
{"sequence": "MTDAAEEVLLGKKGCTGVITLNRPKFLNALTLNMIRQIYPQLKKWEQDPETFLIIIKGAGGKAFCAGGDIRVISEAEKAKQKIAPVFFREEYMLNNAVGSCQKPYVALIHGITMGGGVGLSVHGQFRVATEKCLFAMPETAIGLFPDVGGGYFLPRLQGKLGYFLALTGFRLKGRDVYRAGIATHFVDSEKLAMLEEDLLALKSPSKENIASVLENYHTESKIDRDKSFILEEHMDKINSCFSANTVEEIIENLQQDGSSFALEQLKVINKMSPTSLKITLRQLMEGSSKTLQEVLTMEYRLSQACMRGHDFHEGVRAVLIDKDQSPKWKPADLKEVTEEDLNNHFKSLGSSDLKFAENLYFQ", "soluble on expression in E. coli": "soluble"}
{"sequence": "MGTEVSTSPTSLIDQTVVPGDVVLDLSNMTNQTIKLGSGLRQDNEVISVMRAGKLRYSKPNKYWVESSHKRYVPRPEDHVLGIVVDCKGENYWIDIKGPQLALLPVLAFEGANRRNYPKFEVSTLLYTRVVKTNTGMNPELSCVDESGKAAGFGPLKDGFMFETSTGLSRMLLSSPTCPVLEALGKKLSFETAFGLNGRCWVHAAAPRIVIIVANALMNSETLSGTQQRIMVEKLLEKISD", "soluble on expression in E. coli": "soluble"}
{"sequence": "MRIGINVGSTQVDAVILSKHGKVVAASETVIQDDETVLAIKEALVSLIRYLRDTDEVRGVFIGATSECQEVKLGKGLAKTGLIRLNRYQSQIQPLMKWPKALSDHVVYTQSVEIGEELDWFNYFQESLARLKEAEVEAIAVVGAFSPMDNCSEQLVKESLNYHLPSIPVTMSHTIGSIGFLERENAAVLNAVLSKKMKNTLKGVKDFLSSLGFHCPLWVTRNDGCLMTIEEAIEFPVLTLGSGSANSFRGGAFLAEERSCIVVHVSEGITKIGTMIQERFEESHSQTYVFGIPTNLRMPHSIVLPLGEEKQGALGHDIRHGNPSEKTKREEVLISERKGISLAERHAGSSASNLEDQQEMWSTLKQSGLDREAMTQYAERVNDSIEELQIYDQELPIVVVGSGAPCMMQRLQSQTREVVAPFGYQRCHAVGACLGMVSAEVDQVYHLKDQTKAEVIEEAKEKAIKEAERKGAFPDTISIEQVEEYPFDYLQGEVIRIRVKAVGQVKDSLEHHHHHH", "soluble on expression in E. coli": "not soluble"}
{"sequence": "MRVVRPEFRPAPGLDTDAMASRQRDIAAVADFADDHGLTPERIGLDEPPGEQAALGGATTSGEAAPVVVGVDQAFRDDEVSVSAAVAIRDGAVIERAAGNAPLDVPYVPGLLAFREGSAVIDALSSLSVEPDLLVVDGSGRIHYRQAGLATHVGVLFDVPAVGVAKSLLCGTPAAALADPLPAGTRVAIEADDSMDAPDGAVVGYALQSRQYPTPETRHINPLYVSPGHRVSAGTAADLVEATCTQYKLPAPTRLADQYAADLT", "soluble on expression in E. coli": "not soluble"}
{"sequence": "MGGVKKNALLDYVFTKALENLTALFTQLNITAVKEIIRPLETGHEAYFVLPIDARTLKVLMIELEESIPLARLWDLDVFNAKGNLLSRTDFDLSPRTCLVCGENAKICARTHKHEIDEIVDKIQSLAQNHDFAEHIGEQVYLALIQEARLSPKPGLVDAINNGSHKDMNLHTFEQSAISLKPFFTQFVLKGMMTAHLSENQILSEIRPLGLLAEKAMFKVTDGVNTHKGAIFSFGLVCTAIGRLLAQKSLVQSAVDFDVKLICSLVAQFTQGLTDELKNYPEHLPSTAGVRLFQKYGLTGVRGEAENGFNLIQTLLPQFDEYHQLEWEHRLLILLLNLMAINSDTNVVHRGGLAGLYFIQQTAQDLLTDQHLVTDKTALTQALMKFDTACIERNLSSGGSADLLALTIFFLSFRGN", "soluble on expression in E. coli": "not soluble"}
{"sequence": "MGSDKIHHHHHHTQTTEKENEFSMSMQIRPRAEYRNGALVPRNEGQKAASFINNRARLSLDYKRSDLEIKMSAQHVGVWGQDPQIDKNGRFILNEAWAKLDFGKGFFAQLGRQTLVYDDERILGGLDWNVAGRYHDALKLGYANKNNEIHAILAFNQNDEKTAGGTYYNSSIGQPYKNMQTVWYHYKADKIPFGASLLFMNLGLETGNQLTQDSHTRYLQTMGTYLTYKNSGWNLDGAFYYQTGKNKDAESVSAFMASATAAYAFNKTWGMVVSFDYLSGNEEGSSKFKAFDPLYGTHHKFYGSMDYFYASAFNKGFAPGLIDGRLGARFRASAKVDMELNYHYFATATEVDFKEDLKKSLGSEVDYQINWSVMKDVKLSAGYSFMLGTKTMDAVKGGNHKSWQDWGWVSVNINPKVFFTKW", "soluble on expression in E. coli": "not soluble"}
{"sequence": "MGSDKIHHHHHHMHEVVQDYYGKQLQSTEDLKTSACCDVSNMPSWLKPLLANIHDEVLSRYYGCGLVCPALLEGCRILDLGCGSGRDVYALAQLVGSTGHVVGVDMTDEQLAIAKQHQDYHVDKFGYDNVTFLKGYIEKLDELNLDPNSFDIIVSNCVINLSPDKAAVMASVQRLLKPGGEFYFSDVYADRRIPQQLINDPVLYGECLSGALYWKDFERLARHADFLDPRLVEDRPLEITDPLLAAKIGDIQFFSATYRLFKIATLEDACEDHGQAVIYRGTIDQLPHHFNLDKHHAIETGRVFPVCGNTFRMLKESRFAKHFDFIGDDSRHYGIFAGCGDILPFGNQANIVSDSNVGQSVNSGSCC", "soluble on expression in E. coli": "not soluble"}
{"sequence": "MSLTASPIVVFDLDGTLIDTAPDLINALNFILVREGMPAVPMAVARNMIGQGARRLLERGLELDGRVIAQDDVNRLTVDFIDYYAAHIADESRPFEGLEATLDELSESGYRFAVCTNKLEWLSKLLLDRLGLSPRFAAICGADTFGVAKPDPAILRETVAKAGGDLSAAIMVGDAGPDVGVARRAGVPVIGVEFGYTEVPIAELQPDLLVGHMRELPNAVGRLLPRREGHHHHHH", "soluble on expression in E. coli": "soluble"}
{"sequence": "MSQPESPEQRRTAILATAERILRSGSPLTLGKVAQEVGISRTALYRYVSGIDEIIETLATKDFPHWLTSLRSAMAAAPTPKQRALCWAIESIKLGRETDHAWLATLSSLNLSENCRNAIASEHSKIDQLLRVELAQLGTPHIELTVATVRAVVMTAIQTPSSTEADDYFTATISAIIDASC", "soluble on expression in E. coli": "not soluble"}
{"sequence": "MEQKQRRFTKNIFVLDVTAKTLCGAIAKLSSQPYCQIKIGRVVAFKPVKNPEPKGYVLNVPGPGAYRIQDGQDIISLMLTPHGVEATTERWEEWKFEGVSVTPMATRVQYNGVMVDAEIKYCKGMGIVQPYMRNDFDRNEMPDLPGVMRSNYDIRELRQKIKNERESAPRLQVHSVARPGSENLYPQ", "soluble on expression in E. coli": "soluble"}
{"sequence": "MSSILTNNGAMVALQTLKSVNMNLGQTQNAISTGKNVATAKDNSAVWAISKVMESDVKGFKAIKDSLSLGESTVAVARNAAETVTDLLTQMKGKIVAAQEDNVDRNKINADVTALKDQISAVVGAAQFNGLNLVDGTAASASVLSSLDRDNAGNVTASSITVTGQNLSTGGYTAKAVFDATNTDGVSADGQDTFGFSLDANGGTDDNGQIEFEPQGTAAYAAGDSFTIRLGDTEVNYTVTAEDIASTSQADVIAVGMKAAIEASGANVTVDYNAANSGRLVITNDGTDSLQVSGQFSNANSGGLGALAAIDVSNSAGAAAALGSIETLIDTSIDAAAAFGSVQGRIETQKTFISNLTDSLKSGIGSMVDADMEEVSARLQALQVQQQLAVQSLSIANQAPQSILSLFR", "soluble on expression in E. coli": "not soluble"}
{"sequence": "MRETRMVYPVFPGETNHYGTLFGGTVLAWMDQAAFVAATRHARKKVVTVHADAVDFKRPVPLGAIVELVARLKEVGRTSMRVEVEMWVEPVKEGEEAYLAARGGFVLVAVDERGRPSPVPPLEGGEAHAPHGP", "soluble on expression in E. coli": "soluble"}
{"sequence": "MSLLERLNQDMKLYMKNREKDKLTVVRMVKASLQNEAIKLKKDSLTEDEELTVLSRELKQRKDSLQEFSNANRLDLVDKVQKELDILEVYLPEQLSEEELRTIVNETIAEVGASSKADMGKVMGAIMPKVKGKADGSLINKLVSSQLS", "soluble on expression in E. coli": "soluble"}
